# Test results from IntAct's records for PubMed 29374201.
# B1: Complement factor H (Homo sapiens), P08603-2 (parent)
# chain: MRLLAKIICLMLWAICVAEDCNELPPRRNTEILTGSWSDQTYPEGTQAIYKCRPGYRSLGNVIMVCRKGEWVALNPLRKCQKRPCGHPGDTPFGTFTLTGGNVFEYGVKAVYTCNEGYQLLGEINYRECDTDGWTNDIPICEVVKCLPVTAPENGKIVSSAMEPDREYHFGQAVRFVCNSGYKIEGDEEMHCSDDGFWSKEKPKCVEISCKSPDVINGSPISQKIIYKENERFQYKCNMGYEYSERGDAVCTESGWRPLPSCEEKSCDNPYIPNGDYSPLRIKHRTGDEITYQCRNGFYPATRGNTAKCTSTGWIPAPRCTLKPCDYPDIKHGGLYHENMRRPYFPVAVGKYYSYYCDEHFETPSGSYWDHIHCTQDGWSPAVPCLRKCYFPYLENGYNQNYGRKFVQGKSIDVACHPGYALPKAQTTVTCMENGWSPTPRCIRVSFTL
# B2: Complement factor H (Homo sapiens), P08603 (parent)
# chain: MRLLAKIICLMLWAICVAEDCNELPPRRNTEILTGSWSDQTYPEGTQAIYKCRPGYRSLGNVIMVCRKGEWVALNPLRKCQKRPCGHPGDTPFGTFTLTGGNVFEYGVKAVYTCNEGYQLLGEINYRECDTDGWTNDIPICEVVKCLPVTAPENGKIVSSAMEPDREYHFGQAVRFVCNSGYKIEGDEEMHCSDDGFWSKEKPKCVEISCKSPDVINGSPISQKIIYKENERFQYKCNMGYEYSERGDAVCTESGWRPLPSCEEKSCDNPYIPNGDYSPLRIKHRTGDEITYQCRNGFYPATRGNTAKCTSTGWIPAPRCTLKPCDYPDIKHGGLYHENMRRPYFPVAVGKYYSYYCDEHFETPSGSYWDHIHCTQDGWSPAVPCLRKCYFPYLENGYNQNYGRKFVQGKSIDVACHPGYALPKAQTTVTCMENGWSPTPRCIRVKTCSKSSIDIENGFISESQYTYALKEKAKYQCKLGYVTADGETSGSITCGKDGWSAQPTCIKSCDIPVFMNARTKNDFTWFKLNDTLDYECHDGYESNTGSTTGSIVCGYNGWSDLPICYERECELPKIDVHLVPDRKKDQYKVGEVLKFSCKPGFTIVGPNSVQCYHFGLSPDLPICKEQVQSCGPPPELLNGNVKEKTKEEYGHSEVVEYYCNPRFLMKGPNKIQCVDGEWTTLPVCIVEESTCGDIPELEHGWAQLSSPPYYYGDSVEFNCSESFTMIGHRSITCIHGVWTQLPQCVAIDKLKKCKSSNLIILEEHLKNKKEFDHNSNIRYRCRGKEGWIHTVCINGRWDPEVNCSMAQIQLCPPPPQIPNSHNMTTTLNYRDGEKVSVLCQENYLIQEGEEITCKDGRWQSIPLCVEKIPCSQPPQIEHGTINSSRSSQESYAHGTKLSYTCEGGFRISEENETTCYMGKWSSPPQCEGLPCKSPPEISHGVVAHMSDSYQYGEEVTYKCFEGFGIDGPAIAKCLGEKWSHPPSCIKTDCLSLPSFENAIPMGEKKDVYKAGEQVTYTCATYYKMDGASNVTCINSRWTGRPTCRDTSCVNPPTVQNAYIVSRQMSKYPSGERVRYQCRSPYEMFGDEEVMCLNGNWTEPPQCKDSTGKCGPPPPIDNGDITSFPLSVYAPASSVEYQCQNLYQLEGNKRITCRNGQWSEPPKCLHPCVISREIMENYNIALRWTAKQKLYSRTGESVEFVCKRGYRLSSRSHTLRTTCWDGKLEYPTCAKR
# partner: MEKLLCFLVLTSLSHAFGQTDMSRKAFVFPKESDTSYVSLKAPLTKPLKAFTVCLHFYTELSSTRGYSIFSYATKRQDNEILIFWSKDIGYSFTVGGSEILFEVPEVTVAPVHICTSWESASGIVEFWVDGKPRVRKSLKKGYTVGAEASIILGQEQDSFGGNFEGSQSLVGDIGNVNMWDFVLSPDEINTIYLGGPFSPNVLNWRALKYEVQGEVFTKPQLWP
# B3: Complement factor H (Homo sapiens), P08603-2 (parent)
# chain: B1 chain
# partner: B2 partner
# Variants of: B1
# Settings: with ptx3_human PTX3, P26022
# Chain of ptx3_human PTX3, P26022 (P26022 whole entry): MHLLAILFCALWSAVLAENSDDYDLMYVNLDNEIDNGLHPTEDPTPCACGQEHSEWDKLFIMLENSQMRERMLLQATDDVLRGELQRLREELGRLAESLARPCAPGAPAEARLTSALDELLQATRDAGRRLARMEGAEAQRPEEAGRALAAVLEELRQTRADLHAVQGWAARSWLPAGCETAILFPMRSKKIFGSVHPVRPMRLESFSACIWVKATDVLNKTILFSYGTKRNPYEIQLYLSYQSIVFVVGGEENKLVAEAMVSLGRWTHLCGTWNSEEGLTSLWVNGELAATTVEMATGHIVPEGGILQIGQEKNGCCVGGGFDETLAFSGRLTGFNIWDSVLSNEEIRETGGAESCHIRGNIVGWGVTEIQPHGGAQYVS
row,Variant,effect of a mutation on the interaction
1,Y402H,disrupting interaction strength

# Variants of: B1
# Settings: with ptx3_human PTX3, P26022
# Remark: another data set of the same source
row,Variant,effect of a mutation on the interaction
1,Y402H,decreasing interaction strength

# Variants of: B2
# Settings: with crp_human CRP
row,Variant,effect of a mutation on the interaction
1,Y402H,decreasing interaction strength

# Variants of: B3
# Settings: with crp_human CRP
row,Variant,effect of a mutation on the interaction
1,Y402H,decreasing interaction strength
